From US20250346679A1 (INVOX PHARMA, published 2025)
Changes are numbered by the printed parent chain.

B1: FS22-172-003-AA/E05v2 (bispecific antibody, human IgG1, kappa, L234A L235A)
heavy: EVQLVQSGAEVKRPGASVKVSCKASGYTFTSYGISWVRQAPGQGLEWMGWISAYSGGTNYAQKLQGRVTMTTDTSTSTAYMELRSLRSDDTAVYYCARDLFPTIFGVSYYYYWGQGTLVTVSSASTKGPSVFPLAPSSKSTSGGTAALGCLVKDYFPEPVTVSWNSGALTSGVHTFPAVLQSSGLYSLSSVVTVPSSSLGTQTYICNVNHKPSNTKVDKKVEPKSCDKTHTCPPCPAPEAAGGPSVFLFPPKPKDTLMISRTPEVTCVVVDVSHEDPEVKFNWYVDGVEVHNAKTKPREEQYNSTYRVVSVLTVLHQDWLNGKEYKCKVSNKALPAPIEKTISKAKGQPREPQVYTLPPSRDELPYIIPPYNQVSLTCLVKGFYPSDIAVEWESNGQPENNYKTTPPVLDSDGSFFLYSKLTVGADRWLEGNVFSCSVMHEALHNHYTQKSLSLSPG
light: DIQMTQSPSTLSASVGDRVTITCRASQSISGRLAWYQQKPGKAPNLLIYEASNLESGVPSRFSGSGSGTEFTLTISSLQPEDFATYYCQQSYSTPRVTFGQGTKVEIKRTVAAPSVFIFPPSDEQLKSGTASVVCLLNNFYPREAKVQWKVDNALQSGNSQESVTEQDSKDSTYSLSSTLTLSKADYEKHKVYACEVTHQGLSSPVTKSFNRGEC
B2: FS22-172-003-AA/G12v2 (bispecific antibody, human IgG1, kappa, L234A L235A)
heavy: B1 heavy
light: DIQMTQSPSTLSASVGDRVTITCRASQSISGRLAWYQQKPGKAPNLLIYEASNLESGVPSRFSGSGSGTEFTLTISSLQPEDFATYYCQQSYSWPRTFGQGTKVEIKRTVAAPSVFIFPPSDEQLKSGTASVVCLLNNFYPREAKVQWKVDNALQSGNSQESVTEQDSKDSTYSLSSTLTLSKADYEKHKVYACEVTHQGLSSPVTKSFNRGEC
B3: FS22-053-008-AA/E05v2 (bispecific antibody, human IgG1, kappa, L234A L235A)
heavy: B1 heavy with P365N, Y366P, I367P, I368Y, P369L, P370F, Y371S, G424D, A425Y, D426W
light: B1 light

Legend:
[1] = biological target: human CD137, cell-surface (human, UniProt Q07011 24-255); assay: cell-based or functional assay
[2] = biological target: human PD-L1, cell-surface (human, UniProt Q9NZQ7 19-290); assay: cell-based or functional assay
[3] = biological target: T1, cynomolgus CD137, cell-surface (cynomolgus, UniProt Q07011 24-255 (human entry)); assay: cell-based or functional assay
T1 chain: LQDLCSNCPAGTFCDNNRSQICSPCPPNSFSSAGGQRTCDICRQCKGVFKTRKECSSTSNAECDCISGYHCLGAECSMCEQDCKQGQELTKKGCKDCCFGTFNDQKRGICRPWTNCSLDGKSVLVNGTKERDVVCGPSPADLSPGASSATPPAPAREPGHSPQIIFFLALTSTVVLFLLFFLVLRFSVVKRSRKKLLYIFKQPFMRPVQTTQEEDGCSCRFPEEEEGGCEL

[4] = biological target: T2, biotinylated hPD-L1-Avi-His (Acro Biosystems, PD1-H82E5) (human, UniProt Q9NZQ7 19-238, biotinylated); assay: SPR, mAb^2 captured on Protein A chip, antigen in flow
T2 construct: bought; also called Human PD-L1-His; not shown: Avi and His tags of the bought product
Experimental: (§1) Briefly, the anti-human CD137/PD-L1 mAb², diluted in HBS-EP buffer (GE Healthcare, BR100188) at 2 μg/ml, were injected individually on flows cell 2, 3 and 4 of a Protein A chip (GE Healthcare, 29127556) at 30 μl/min to achieve a final response of approximately 110 RU. Two different recombinant human PD-L1 antigens were used i.e. hPD-L1-His-Avi (see Example 1.3 for antigen details) and biotinylated hPD-L1-Avi-His (Acrobiosystems, PD-1-H82E5). Human and cynomolgus PD-L1-His (Acrobiosystems, PD-1-C52H4) antigens, diluted in HBS-EP buffer, were injected on flow cell 1, 2, 3 or 4 as appropriate at a concentration range of 81 nM to 0.037 nM with 3-fold dilutions for 4 min at 75 μl/min and then allowed to dissociate in buffer for 10 min. Regeneration was achieved by injecting 10 mM glycine-HCL pH1.5 (GE Healthcare, Human Antibody Capture Kit, BR00356) for 30 sec at a rate of 30 μl/min. Subtracted data (flow cell 2−flow cell 1, flow cell 3−flow cell 1, or flow cell 4−flow cell 1) were analysed using BIAevaluation 3.2 Software (GE Healthcare) to identify binding using the model 1:1 binding with mass transfer, with refractive index (RI) constant 0.

[5] = biological target: T3, cPD-L1-His (Acro Biosystems, PD1-C52H4) (cynomolgus, UniProt Q9NZQ7 19-238 (human entry)); assay: as above
T3 construct: bought; also called Cyno PD-L1-His; Cynomolgus PD-L1-His; not shown: His tag of the bought product
Experimental: as §1

hCD137-mFc-Avi = biological target: T4, hCD137-mFc-Avi (human; mouse, UniProt Q07011 24-186, biotin on the Avi sequence where the biotinylated form was used); assay: SPR, mAb^2 captured by anti-human Fab, antigen in flow
T4 construct: also called human CD137-mFc-Avi; dimeric human CD137; not shown: mouse IgG2a Fc domain (mIgG2a Fc)
Experimental: (§2) The binding of the anti-human CD137/PD-L1 mAb² to recombinant dimeric human and cynomolgus CD137 antigens was also measured by SPR using a Biacore T200 processing unit (GE Healthcare).
(§3) Briefly, 20 μg/ml anti-human Fab antibody (GE Healthcare, Human Fab Capture kit 28958325) was coated on flow cells 1, 2, 3 and 4 of a Biacore sensor S chip CM5 (GE Healthcare, BR100530) achieving a final response of approximately 5000 RU. […] The recombinant dimeric antigens, human CD137-mFc-Avi or cynomolgus CD137-mFc-Avi (see Example 1.1 for antigen details) diluted in HBS-EP buffer, were injected on flow cell 1, 2, 3 or 4 as appropriate at a concentration range of 81 nM to 0.037 nM with 3-fold dilutions for 4 minutes at 70 μl/min and then allowed to dissociate in buffer for 10 minutes. Regeneration was achieved by injecting 10 mM glycine pH 2.1 (GE Healthcare, Human Fab Capture kit 28958325) for 60 seconds at a rate of 30 μl/min. Data analysis was performed as described in Example 9.1.

cCD137-mFc-Avi = biological target: T5, cCD137-mFc-Avi (cynomolgus; mouse); assay: as above
T5 construct: also called cynomolgus CD137-mFc-Avi; Cyno CD137-mFc-Avi; not shown: mouse IgG2a Fc domain (mIgG2a Fc)
T5 chain: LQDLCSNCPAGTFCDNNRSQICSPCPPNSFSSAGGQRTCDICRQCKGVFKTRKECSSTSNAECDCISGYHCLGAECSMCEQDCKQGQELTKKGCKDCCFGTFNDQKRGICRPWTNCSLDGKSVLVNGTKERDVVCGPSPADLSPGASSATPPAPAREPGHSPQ
Experimental: as §2, §3

Sequence of human PD-L1, cell-surface (Q9NZQ7 19-290): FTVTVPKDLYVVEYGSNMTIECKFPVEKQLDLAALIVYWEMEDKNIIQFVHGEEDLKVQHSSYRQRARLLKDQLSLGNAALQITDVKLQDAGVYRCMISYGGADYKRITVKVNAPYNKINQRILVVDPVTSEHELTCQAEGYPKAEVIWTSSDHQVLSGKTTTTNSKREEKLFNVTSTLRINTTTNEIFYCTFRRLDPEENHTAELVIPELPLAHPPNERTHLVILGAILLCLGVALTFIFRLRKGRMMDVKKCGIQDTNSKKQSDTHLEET
T3 sequence (Q9NZQ7 other isoform, or with tags, fused parts or gaps): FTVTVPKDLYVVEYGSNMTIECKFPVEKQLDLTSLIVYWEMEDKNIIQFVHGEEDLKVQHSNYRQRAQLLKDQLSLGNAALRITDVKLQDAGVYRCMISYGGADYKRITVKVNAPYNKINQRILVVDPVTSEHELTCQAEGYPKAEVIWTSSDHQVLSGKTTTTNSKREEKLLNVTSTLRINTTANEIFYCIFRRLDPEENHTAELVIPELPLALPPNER
T2 sequence (Q9NZQ7 19-238): as the sequence (Q9NZQ7 other isoform, or with tags, fused parts or gaps) above, with T33A, S34A, N62S, Q68R, R82Q, L173F, A185T, I192T, L215H counted along it
T4 sequence (Q07011 24-186): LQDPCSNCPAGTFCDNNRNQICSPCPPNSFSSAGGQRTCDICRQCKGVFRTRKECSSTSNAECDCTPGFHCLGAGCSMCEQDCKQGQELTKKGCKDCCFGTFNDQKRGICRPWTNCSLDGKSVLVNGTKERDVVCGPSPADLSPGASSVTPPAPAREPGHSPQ

Binder	EC50 (nM), hIL-2 release, CD8+ T cells, donor 171115A, HEK.hPD-L1 XL [1] [nM]	EC50 (nM), hIL-2 release, CD8+ T cells, donor 171115A, MDA-MB-231 XL [1] [nM]	EC50 (nM), hIL-2 release, CD8+ T cells, donor 171115B, HEK.hPD-L1 XL [1] [nM]	EC50 (nM), hIL-2 release, CD8+ T cells, donor 171115B, MDA-MB-231 XL [1] [nM]	EC50 (nM), IFN-γ release, human MLR [2] [nM]	Emax (pg/ml), IFN-γ release, human MLR [2] [pg/mL]	EC50 (nM) (crosslinked), mIL-2 release, DO11.10.cCD137 with HEK.cyPD-L1 [3]	Emax (pg/ml) (crosslinked), mIL-2 release, DO11.10.cCD137 with HEK.cyPD-L1 [3] [pg/mL]	Kd [4] [nM]	Kd [5] [nM]	Kd (hCD137-mFc-Avi) [nM]	Kd (cCD137-mFc-Avi) [nM]
B1	0.27	0.02	0.19	0.02	0.03	2650	0.08	10500	0.5	0.59	1.5	1
B2	0.21	0.02	0.22	0.01			0.06	11200	0.49	0.53	2.2	1.8
B3	0.16	0.01	0.11	0.02	0.02	2800	0.06	8060	0.47	0.58	2.8	1.1
